Laboratory results as given in patent US20150086555A1.

B1: TCN-534 (5249_B02) (antibody, V domains shown)
VH: QVQLVQSGAEVKKPGSSVKVSCRESGGTFNGYTITWVRQAPGQGLEWMGGIIPMMGTVNYAQKLQGRVTITTDYFTKTAYMDLNNLRSEDTAMYYCVKIRYTGQQLLWGQGTLVTVSS
VL: DIQMTQSPSTLSASIGDRVTITCRASQSIASWLAWYQQKPGKAPKLLIYEAVNLESGVPSRFSGSGSGTDFTLTISSLQPDDFATYFCQHYGTISQTFGGGTKVEIK
B2: TCN-536 (5095_N01) (antibody, V domains shown)
VH: QVQLQQWGAGLLKPSETLSLTCAVYGGSFSVSGYYWSWIRQPPGRGLEWIGEISHGGSTNYNPSLKSRVTISVDTTKNQFSLRLSSVTAADTAVYYCARGTDPDTEVYCRVGNCAAFDYWGQGSLVTVSS
VL: EIILAQSPGTLSLSPGERATLSCRASQFVSTRSLAWYQQRPGQAPRLLIYGASSRATGIPDRFSGSGSGTDFTLTISRLEPEDFAVYYCQHYGYSPRYAFGQGSKVEIK
B3: TCN-504 (3251_K17) (antibody, V domains shown)
VH: QVQLQESGPGLVKPSETLSLTCAVSGVSISNIDFYWGWIRQPPGKGLEWIGNIYYTGITFYNPSLSSRVAISIDTSKNQFSLTLTSVTAADTAMYYCARHYGDSEAINDAFDIWGQGTMLTVSS
VL: EIVMTQSPATLSVSPGERATLSCRASQSVGNSLAWYQQRPGQAPRLLIYGASTRATGIPPRFSGSGSGTEFTLTISSLQTEDFAVYYCQQYINWRPLSFGGGTKVEIK
B4: TCN-535 (5246_P19) (antibody, V domains shown)
VH: QVQLVQSGSEVKKPGTSVKVSCTASGSVFTNYGISWVRQAPGQGLEWMGGIIPLFGAAKYAQKFQGRVTITADESTKTVYMELSRLTSKDTAIYFCAKAPRVYEYYFDQWGQGTPVTVSS
VL: EIVLTQSPGTLSLSPGERATLSCRASQSVSSSQLAWYQQKPGQAPRLIIYGASTRATGIPDRFSGSGSGTDFTLTIGRLEPEDFAVFFCQQYSTSPPTFGQGTKVDFK

What was measured:
Details in all cases: remark: other sources report otherwise
[1] = target: T1, recombinant soluble homotrimeric HA of A/chicken/Vietnam/NCVD-016/08 (H5N1) (Influenza A virus A/chicken/Vietnam/NCVD-016/2008(H5N1)); assay: trimeric HA microarray, transfection supernatant set 4
[2] = target: T2, recombinant soluble homotrimeric HA of A/Japan/305/57 (H2N2) (Influenza A virus A/Japan/305/1957(H2N2)); assay: as above
[3] = target: recombinant soluble homotrimeric HA of A/northern shoveler/California/HKWF115/07 (H6) (Influenza A virus A/northern shoveler/California/HKWF115/2007(H6N1)); assay: as above
[4] = target: recombinant soluble homotrimeric HA of A/duck/Yangzhou/02/05 (H8N4) (Influenza A virus A/duck/Yangzhou/02/2005(H8N4)); assay: as above
[5] = target: T3, recombinant soluble homotrimeric HA of A/Egypt/3300-NAMRU3/08 (H5N1) (Influenza A virus A/Egypt/3300-NAMRU3/2008(H5N1)); assay: as above
[6] = target: recombinant soluble homotrimeric HA of A/swine/Ontario/01911-2/99 (H4N6) (Influenza A virus A/Swine/Ontario/01911-2/99 (H4N6)); assay: as above
[7] = target: T4, recombinant soluble homotrimeric HA of A/Vietnam/1203/04 (H5N1) (Influenza A virus A/VietNam/1203/2004(H5N1)); assay: as above
[8] = target: T5, recombinant soluble homotrimeric HA of A/Netherlands/219/03 (H7N7) (Influenza A virus A/Netherlands/219/03(H7N7)); assay: as above
[9] = target: T6, recombinant soluble homotrimeric HA of A/Solomon Islands/3/06 (H1N1) (Influenza A virus A/Solomon Islands/3/2006(H1N1)); assay: as above
[10] = target: recombinant soluble homotrimeric HA of A/Hong Kong/1073/99 (H9N2) (Influenza A virus A/Hong Kong/1073/99 (H9N2)); assay: as above
[11] = target: T7, recombinant soluble homotrimeric HA of A/South Carolina/1/18 (H1N1) (Influenza A virus A/South Carolina/1/18 (H1N1)); assay: as above
[12] = target: T8, recombinant soluble homotrimeric HA of A/Indonesia/5/05 (H5N1) (Influenza A virus A/Indonesia/5/2005(H5N1)); assay: as above
[13] = target: T9, recombinant soluble homotrimeric HA of A/Anhui/1/05 (H5N1) (Influenza A virus A/Anhui/1/2005(H5N1)); assay: as above
[14] = target: T10, recombinant soluble homotrimeric HA of A/California/4/09 (H1N1) (Influenza A virus A/California/04/2009(H1N1)); assay: as above
[15] = target: recombinant soluble homotrimeric HA of A/Wisconsin/67/05 (H3N2) (Influenza A virus A/Wisconsin/67/2005(H3N2)); assay: as above
[16] = target: recombinant soluble homotrimeric HA, A/swine/Ontario/01911-2/99 H4N6 (Influenza A virus A/Swine/Ontario/01911-2/99 (H4N6)); assay: microarray, transfection SN IgG, trimeric HA
[17] = target: T1, recombinant soluble homotrimeric HA of …; assay: trimeric HA microarray, transfection supernatant set 3
[18] = target: T2, recombinant soluble homotrimeric HA of …; assay: as above
[19] = target: T3, recombinant soluble homotrimeric HA of …; assay: as above
[20] = target: T4, recombinant soluble homotrimeric HA of …; assay: as above
[21] = target: T5, recombinant soluble homotrimeric HA of …; assay: as above
[22] = target: T6, recombinant soluble homotrimeric HA of …; assay: as above
[23] = target: T7, recombinant soluble homotrimeric HA of …; assay: as above
[24] = target: T8, recombinant soluble homotrimeric HA of …; assay: as above
[25] = target: T9, recombinant soluble homotrimeric HA of …; assay: as above
[26] = target: T10, recombinant soluble homotrimeric HA of …; assay: as above

| Binder | Trimeric HA Binding: RLU [1] | Trimeric HA Binding: RLU [2] | Trimeric HA Binding: RLU [3] | Trimeric HA Binding: RLU [4] | Trimeric HA Binding: RLU [5] | Trimeric HA Binding: RLU [6] | Trimeric HA Binding: RLU [7] | Trimeric HA Binding: RLU [8] | Trimeric HA Binding: RLU [9] | Trimeric HA Binding: RLU [10] | Trimeric HA Binding: RLU [11] | Trimeric HA Binding: RLU [12] | Trimeric HA Binding: RLU [13] | Trimeric HA Binding: RLU [14] | Trimeric HA Binding: RLU [15] | also measured |
| --- | --- | --- | --- | --- | --- | --- | --- | --- | --- | --- | --- | --- | --- | --- | --- | --- |
| B1 | 11400 RLU | 14700 RLU | 21300 RLU | 79 RLU | 8310 RLU | 264 RLU | 23700 RLU | 361 RLU | 60 RLU | 731 RLU | 11800 RLU | 948 RLU | 20 RLU | 27000 RLU |  |  |
| B2 | 19 RLU | 260 RLU | 95 RLU | 48 RLU | 97 RLU | 168 RLU | 182 RLU | 246 RLU |  |  | 39 RLU |  | 18 RLU | 49 RLU | 20600 RLU |  |
| B3 | 19200 RLU | 19600 RLU |  | 19900 RLU | 24800 RLU | 21800 RLU | 25700 RLU | 6710 RLU | 14600 RLU |  | 21700 RLU | 18200 RLU | 14100 RLU | 549 RLU | 20600 RLU | Trimeric HA Binding: RLU [16]: 54800 RLU; Trimeric HA Binding: RLU [17]: 10300 RLU; Trimeric HA Binding: RLU [18]: 36000 RLU; Trimeric HA Binding: RLU [19]: 18000 RLU; Trimeric HA Binding: RLU [20]: 13300 RLU; Trimeric HA Binding: RLU [21]: 19600 RLU; Trimeric HA Binding: RLU [22]: 32700 RLU; Trimeric HA Binding: RLU [23]: 27600 RLU; Trimeric HA Binding: RLU [24]: 18600 RLU; Trimeric HA Binding: RLU [25]: 30000 RLU; Trimeric HA Binding: RLU [26]: 18600 RLU |
| B4 | 20900 RLU | 21500 RLU | 18100 RLU | 428 RLU | 25300 RLU |  | 25200 RLU | 159 RLU | 836 RLU | 21200 RLU | 22400 RLU | 18200 RLU | 24 RLU | 25200 RLU | 4450 RLU |  |
